# Measured values as given in US20220363757A1.
# Tests used:
# Assay in all cases: SPR, Fab over captured mutant LAG-3-Fc
# [1] = molecular target: human LAG-3 domain 1-2 Fc fusion, point mutation #48 V101A (human) (UniProt P18627)
# [2] = molecular target: human LAG-3 domain 1-2 Fc fusion, point mutation #51 G107A (human) (UniProt P18627)
# [3] = molecular target: human LAG-3 domain 1-2 Fc fusion, chimeric construct #3 (mutated region AA 40-41) (human) (UniProt P18627)
# [4] = molecular target: human LAG-3 domain 1-2 Fc fusion, point mutation #5 P46A (human) (UniProt P18627)
# Sequence of human LAG-3 domain 1-2 Fc fusion, point mutation #5 P46A (human) (P18627 23-266 P46A): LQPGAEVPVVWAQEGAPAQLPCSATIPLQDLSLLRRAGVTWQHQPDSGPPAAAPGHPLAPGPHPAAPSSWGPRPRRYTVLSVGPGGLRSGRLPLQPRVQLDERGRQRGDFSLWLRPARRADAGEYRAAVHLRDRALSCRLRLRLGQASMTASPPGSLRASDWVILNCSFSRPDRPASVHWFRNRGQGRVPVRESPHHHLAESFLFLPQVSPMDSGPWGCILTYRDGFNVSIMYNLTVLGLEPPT
# Sequence of human LAG-3 domain 1-2 Fc fusion, chimeric construct #3 (mutated region AA 40-41) (human) (P18627 other isoform, or with tags, fused parts or gaps mutant): as the sequence (P18627 23-266 P46A) above, with A18V, Q19H, A24P counted along it
# Sequence of human LAG-3 domain 1-2 Fc fusion, point mutation #48 V101A (human) (P18627 23-266 V101A): as the sequence (P18627 23-266 P46A) above, with A24P, V79A counted along it
# Sequence of human LAG-3 domain 1-2 Fc fusion, point mutation #51 G107A (human) (P18627 23-266 G107A): as the sequence (P18627 23-266 P46A) above, with A24P, G85A counted along it
substance,measurement,setting,value
Fab fragment of 25F7-Lag3.5 analogue,KD mutant/KD wild type,[1],1 fold
same,KD mutant/KD wild type,[2],0.8 fold
same,KD mutant/KD wild type,[3],1.3 fold
same,KD mutant/KD wild type,[4],1.1 fold
